Data on one molecule can be found in publication PMC6523098 (2019).

This experiment has as its target T1, His:AtBPM3 (Arabidopsis thaliana (Mouse-ear cress), UniProt O22286).
T1 chain: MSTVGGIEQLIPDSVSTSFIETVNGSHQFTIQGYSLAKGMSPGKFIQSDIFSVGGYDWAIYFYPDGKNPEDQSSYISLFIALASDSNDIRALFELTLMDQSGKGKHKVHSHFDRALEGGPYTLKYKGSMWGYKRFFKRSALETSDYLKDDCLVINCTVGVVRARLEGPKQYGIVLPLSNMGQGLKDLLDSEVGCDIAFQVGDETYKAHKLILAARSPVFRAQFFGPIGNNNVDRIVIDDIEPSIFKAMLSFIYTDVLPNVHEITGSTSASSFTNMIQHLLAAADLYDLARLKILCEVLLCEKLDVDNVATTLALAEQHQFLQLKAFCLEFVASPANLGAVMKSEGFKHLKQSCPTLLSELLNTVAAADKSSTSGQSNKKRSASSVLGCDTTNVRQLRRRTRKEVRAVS
The experiment can be described thus: pulldown.

B1: GST:AtRAP2.4 (protein)
chain: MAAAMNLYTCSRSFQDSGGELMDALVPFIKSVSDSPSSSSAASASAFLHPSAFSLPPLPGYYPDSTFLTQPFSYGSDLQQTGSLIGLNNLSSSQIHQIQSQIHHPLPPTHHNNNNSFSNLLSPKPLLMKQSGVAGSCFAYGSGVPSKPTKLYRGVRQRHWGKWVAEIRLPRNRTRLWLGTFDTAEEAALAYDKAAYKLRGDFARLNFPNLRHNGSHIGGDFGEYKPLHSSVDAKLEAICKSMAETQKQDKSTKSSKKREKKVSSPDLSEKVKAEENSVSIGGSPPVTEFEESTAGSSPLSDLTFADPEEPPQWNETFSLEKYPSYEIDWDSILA
Turning to B1, the binding result was “binds”.
